The target in the assay is T1, mutant murine LIGHT (a.a. 79-82, EKLI, deleted), expressed on the cell surface (murine, UniProt Q9QYH9 1-239).
T1 construct: The deletion of a.a; 79-82 is written as two ranges of the natural protein; also called mutant LIGHT; LIGHT^m
T1 sequence: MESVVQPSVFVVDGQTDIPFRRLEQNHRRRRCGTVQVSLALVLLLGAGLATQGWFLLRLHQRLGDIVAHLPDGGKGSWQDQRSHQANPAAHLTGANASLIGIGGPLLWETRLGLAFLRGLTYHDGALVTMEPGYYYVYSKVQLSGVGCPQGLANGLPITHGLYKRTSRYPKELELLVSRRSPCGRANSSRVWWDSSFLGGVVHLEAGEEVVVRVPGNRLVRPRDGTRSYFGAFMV
Description: flow cytometry and fluorescence microscopy, 293 cells expressing mutant murine LIGHT, stained with murine LTbR-Ig and a labelled anti-Ig. Here is the method:
293 cells, a human kidney cell line, are commonly and easily used for transient expression of gene at relative high level of gene. 293 cells were seeded in 6 well plate and transfected with 2 μg DNA of pAdCMVmLIGHT (wild type murine LIGHT), pAdCMVmmLIGHT (mutant murine LIGHT) or pAdCMVcommLIGHT (codon optimized mutant murine LIGHT by GNENART, Berlin, Germany). Codon modification is to optimize gene codon to allow higher expression of protein without changing protein sequences. Transfection was performed using Lipofectmin 2000 reagent. 48 hours after transfection, cells were detached and incubated with recombinant mLTbR-huFc protein (10 μg/ml) followed by staining with PE conjugated Donkey anti-human IgG antisera. Cells were washed and analyzed by flowcytometry (BD FACSArray Bioanalyzer). Transfection were carried out in triplicates and only one representative result is shown. […] Cells were also examined visually by fluorescent microscopy. Representative results are shown in lower panel. (see FIG. 18). High expression of LIGHT is required to have stronger response. However, protease digestion of LIGHT often reduces its stability on cell surface.
(In flow cytometry, cells or beads pass a laser one at a time.)

This note sets out measurements from patent publication US20090092640A1 (UNIVERSITY OF CHICAGO, published 2009).

B1: recombinant mLTbR-huFc protein (Fc fusion, mouse, UniProt P50284 31-223, looked up)
chain: QLVPPYRIENQTCWDQDKEYYEPMHDVCCSRCPPGEFVFAVCSRSQDTVCKTCPHNSYNEHWNHLSTCQLCRPCDIVLGFEEVAPCTSDRKAECRCQPGMSCVYLDNECVHCEEERLVLCQPGTEAEVTDEIMDTDVNCVPCKPGHFQNTSSPRARCQPHTRCEIQGLVEAAPGTSYSDTICKNPPEPGAMLL
notes: also called mouse LTbR-Ig; murine LTbR-Ig; not shown: human Fc
As to B1, the binding result is listed as “binds”.
